Assay results published in US20090264352A1 (published 2009).

Molecular target: T1, GLP-1 receptor (RINm5F cell membranes) (UniProt P32301 22-463, limits assumed)
T1 construct: whole, on cells; The receptor source is homogenized cell membranes, not intact cells
T1 sequence (looked up): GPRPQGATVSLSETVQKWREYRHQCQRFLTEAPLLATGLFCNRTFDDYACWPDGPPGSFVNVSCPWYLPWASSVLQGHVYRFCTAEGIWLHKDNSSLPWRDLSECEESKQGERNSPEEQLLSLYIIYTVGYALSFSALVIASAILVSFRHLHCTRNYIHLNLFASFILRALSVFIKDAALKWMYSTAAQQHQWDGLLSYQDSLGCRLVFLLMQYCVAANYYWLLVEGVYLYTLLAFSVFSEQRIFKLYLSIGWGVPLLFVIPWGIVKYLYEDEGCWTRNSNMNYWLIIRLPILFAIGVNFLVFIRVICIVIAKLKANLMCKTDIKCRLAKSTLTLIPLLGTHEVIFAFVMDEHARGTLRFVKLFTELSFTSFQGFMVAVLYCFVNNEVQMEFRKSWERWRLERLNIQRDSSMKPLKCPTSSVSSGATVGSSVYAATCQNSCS
Experiment: displacement of [125I]GLP-1 from RINm5F cell membranes, filtration and scintillation counting
Procedure: Reaction mixtures are filtered through glass filter pads presoaked with 0.3% PEI solution and rinsed with ice-cold phosphate buffered saline. Bound counts are determined using a scintillation counter. Binding affinities are calculated using GraphPad Prism [sequence] PRISM® software (GraphPad Software, Inc., San Diego, Calif.).

B1: GLP-1 (9-36) (peptide, UniProt P01275 100-127, looked up)
peptide: EGTFTSDVSSYLEGQAAKEFIAWLVKGR
notes: range 100-127; Test compound in the displacement assay
Work on B1 yielded an IC50 of 65 nM.
